The values that follow come from US20020193304.

The data set addresses CD87 (UniProt Q03405).
Chain of UniProt Q03405 (Q03405 whole entry, looked up): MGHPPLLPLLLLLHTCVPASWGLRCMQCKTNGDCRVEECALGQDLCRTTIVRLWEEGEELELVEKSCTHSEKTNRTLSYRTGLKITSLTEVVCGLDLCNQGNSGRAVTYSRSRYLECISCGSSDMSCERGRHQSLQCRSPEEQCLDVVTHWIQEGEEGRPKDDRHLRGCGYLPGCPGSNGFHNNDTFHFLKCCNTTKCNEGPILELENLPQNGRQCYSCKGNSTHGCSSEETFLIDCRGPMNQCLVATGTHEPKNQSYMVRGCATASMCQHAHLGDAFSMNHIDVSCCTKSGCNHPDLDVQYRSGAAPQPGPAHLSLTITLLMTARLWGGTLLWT

Consider “high molecular weight urokinase-type plasminogen activator (HMW-uPA)”, for which the “anti-HIV activity (p17) of gel filtration fractions containing HMW-uPA (Nos. 15-18), co-culture assay” value is recorded as “also were found to have anti-HIV activity (p17), thought that was weaker than ATF”.
